Several values for one entry are separate records, joined by “and”; a condition that tells them apart may be missing. Equal entries are not always repeated. Where two headings read alike, the source gives them in different places.
How the values were obtained:
[1] = target: CMV-pp65495-503-TCR, on Jurkat T cells
[2] = target: CMV-pp65495-503-TCR, on Jurkat T cells; remark: listed apart in the source
[3] = target: CMV-pp65495-503-TCR, on Jurkat T cells; remark: listed apart in the source
[4] = target: pp65495-503 tetramer-positive primary human T cells (their TCRs)
[5] = target: pp65495-503 tetramer-positive primary human T cells (their TCRs); remark: listed apart in the source
[6] = target: CMV-pp65495-503-TCR, on Jurkat T cells; test: cell-based or functional assay
[7] = target: NY-ESO-1 TCR, clone 1G4 mutated version (a95:LY) with high affinity, on Jurkat T cells; test: cell-based or functional assay
[8] = target: Flu-m158-66-TCR, on Jurkat T cells
[9] = target: NY-ESO-1 TCR, clone 1G4 mutated version (a95:LY) with high affinity, on Jurkat T cells
[10] = target: NY-ESO-1 peptide on HLA-A*02:01 (human)
[11] = target: peptide on HLA-A*02:01 (human)
[12] = target: peptide on HLA-A*02:01 (human); remark: listed apart in the source
[13] = target: NY-ESO-1 TCR, clone 1G4 mutated version (a95:LY) with high affinity, on Jurkat T cells; remark: listed apart in the source
[14] = target: NY-ESO-1 TCR, clone 1G4 mutated version (a95:LY) with high affinity, on Jurkat T cells; remark: listed apart in the source
[15] = target: anti-SAR2-RBD BCR on B cells (RBD antibody of PDB 7BWJ with human IgG1 Fc and PDGFR TM); test: flow cytometry; GFP viruses displaying RBD on RBD-BCR+ B cells
[16] = target: Anti-Her2 BCR on B cells (from Trastuzumab vector, with PDGFR TM); test: flow cytometry; GFP viruses displaying HER2 on HER2-BCR+ B cells

CMV pp65495-503 (…) presented by HLA-A0201, single-chain trimer of pMHC displayed on the lentiviral surface (from UniProt P61769 21-119) (peptide-MHC)
percent of T cells GFP+ [1]: > 87%
percent of tetramer positive cells that were GFP+ [2]: > 90%
percent of antigen+ cells matched with the corresponding TCR sequence [3]: 99.8%
percent of tetramer-positive T cells labeled [4]: 83%
percent of tetramer-positive T cells recovered [4]: 98%
percent of tetramer+ T cells labeled [5]: 99%
GFP transgene expression after infection (cargo delivery) [6]: 82%
depletion of on-target T cells after HSV-TK gene delivery and GCV treatment, against GFP gene delivery [6]: 8 fold
GFP transgene expression after infection (cargo delivery) [7]: 0.22%

HPV16 E782-91 peptide presented by HLA-A2, single-chain trimer of pMHC displayed on the lentiviral s (from UniProt P03129 82-91; P61769 21-119) (peptide-MHC)
percent of T cells labeled (GFP+) [1]: 1%
percent of T cells labeled (GFP+) [8]: 1%
percent of T cells labeled (GFP+) [9]: 1%

NY-ESO-1 TCR, clone 1G4, wild-type (1G4 wt)
Kd [10]: 10.8 µM and 84.9 µM
Kd [11]: 10.8 µM and 84.9 µM
Kd [12]: 10.8 µM and 84.9 µM

NY-ESO-1157-165 (…) presented by HLA-A0201, single-chain trimer of pMHC displayed on the lentiviral surface (from UniProt P61769 21-119) (peptide-MHC)
percent of T cells GFP+ [9]: > 87%
percent of T cells labeled (GFP+) [9]: 88.2%
percent of TCR-T cells stained [13]: 95.7%
percent of antigen+ cells matched with the corresponding TCR sequence [14]: 97.4%

Receptor Binding Domain (RBD) from SARS-CoV-2 spike protein fused with ICAM1 TM domain, displayed on (from UniProt P0DTC2 319-541)
percent of B cells labeled (GFP+) [15]: 88%

truncated Her2 (a1-a700) with its native TM domain, displayed on the lentiviral surface (from UniProt P04626 23-700) (receptor)
percent of B cells detected (GFP+) [16]: 76%

Source: US20250027073A1
